T1: PTP1B-OX (Homo sapiens, UniProt P18031)
T1 construct: made in house; host or cells: E. coli BL21 (pET19b)
T1 sequence (P18031 3-277): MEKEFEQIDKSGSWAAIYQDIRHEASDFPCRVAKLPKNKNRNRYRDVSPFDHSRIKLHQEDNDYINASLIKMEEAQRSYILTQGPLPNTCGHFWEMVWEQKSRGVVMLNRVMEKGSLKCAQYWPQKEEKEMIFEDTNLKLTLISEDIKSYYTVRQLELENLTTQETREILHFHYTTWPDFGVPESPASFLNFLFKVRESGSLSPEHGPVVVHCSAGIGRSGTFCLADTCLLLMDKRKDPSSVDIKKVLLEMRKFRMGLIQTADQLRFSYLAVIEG

T2: PTP1B under reducing condition (Homo sapiens, UniProt P18031)
T2 construct: made in house; host or cells: E. coli BL21 (pET19b)
T2 sequence (P18031 3-277 limits assumed): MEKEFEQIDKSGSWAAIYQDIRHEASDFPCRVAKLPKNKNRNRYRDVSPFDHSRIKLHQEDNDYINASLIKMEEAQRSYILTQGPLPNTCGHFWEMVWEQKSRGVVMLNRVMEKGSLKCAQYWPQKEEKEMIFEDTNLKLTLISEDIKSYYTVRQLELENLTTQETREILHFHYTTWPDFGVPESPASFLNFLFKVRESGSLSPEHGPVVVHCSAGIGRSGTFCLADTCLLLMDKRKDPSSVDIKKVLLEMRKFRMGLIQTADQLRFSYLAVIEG


Key:
PTP1B-OX = molecular target: T1, PTP1B-OX; assay: In vitro binding assay, purified recombinant PTP1B (37 kDa) and purified scFv, Ni-NTA pull down; settings: purified proteins, scFv in molar excess, 2 hours at 4° C.; FIG. 9
Experimental: (§1) They established conditions in which PTP1B is reversibly oxidized by H2O2 in solution (FIG. 8). An artificial protein substrate RCML, in which tyrosine was phosphorylated with ^32P using recombinant GST-FER kinase was used in this assay to measure the phosphatase activity. Recombinant PTP (37 kDa) was incubated with increasing concentration (50 μM to 100 mM) of H2O2. A quick buffer exchange was done to remove the H2O2 and reducing agent (TCEP) was added to reactivate the enzyme.
(§2) In the in vitro binding assay, purified PTP was reversibly oxidized with […] followed by a quick buffer exchange to remove H2O2 (FIG. 8). Purified scFv was incubated in molar excess with PTP1B-OX or with PTP under reducing condition (with 2 mM TCEP) in binding buffer (20 mM HEPES, pH 7.4, 300 mM NaCl, 0.05% BSA, 0.05% Tween-20 and 10 mM imidazole) for 2 hours at 4° C. Ni-NTA agarose was added and incubated for one hour at 4° C. Protein complex bound to Ni-NTA agarose beads was pulled down and washed (three times, 5 minutes each, at 4° C.) with binding buffer containing 20 mM imidazole to reduce non-specific binding to the beads. The protein complex was eluted from the Ni-NTA agarose beads with 500 mM imidazole (in binding buffer, pH 7.4) for 15 minutes at 4° C. with gentle shaking. The complex was separated by SDS-PAGE and PTP1B was detected with anti-PTP1B antibody (FG6) and scFv was detected with anti-HA antibody [anti-HA (3F10)-HRP, Roche] by immunoblotting. Eight different scFvs (scFvs 20, 21, 24, 28, 45, 48, 57, and 105), expressed and purified from bacterial cultures were tested by this in vitro binding experiment.

[1] = molecular target: T2, PTP1B under reducing condition; assay: In vitro binding assay, purified recombinant PTP1B (37 kDa) and purified scFv, Ni-NTA pull down, reducing condition; settings: with 2 mM TCEP; FIG. 9
Experimental: as §1, §2

Row | Molecule | binding to PTP1B-OX in vitro (PTP1B-OX) | binding to PTP1B under reducing condition in vitro [1]
1 | scFv45: conformation-sensor scFv binding PTP1B-OX, SEQ ID NO: 26 and 78; expressed as intrabody (protein) scFv: MKKTAIAIAVALAGFATVAQAALTQPSSVSANPGGTVKITCSGSSSAYGYGWYQQKSPGSAPVTVIYNNNKRPSNIPSRFSGSKSGSTGTLTITGVQAEDEAVYFCGSEDSSTDAIFGAGTTLTVLGQSSRSSTVTLDESGGGLQAPGGALSLVCKASGFTFSSYDMGWIRQAPGKGLEYVAGITDNGRYASYGSAVDGRATISRDNGQSSVRLQLNNLRAEDTGTYYCARDDGSGWTGNSIDAWGHGTEVIVSSTSGQAGQHHHHHHGAYPYDVPDYAS | specific binding to PTP1B-OX | not to PTP under reducing condition
2 | scFv57: scFv binding PTP1B-OX, SEQ ID NO: 27 and 90 (protein) scFv: MKKTAIAIAVALAGFATVAQAALTQPSSVSANPGAFNKITCSGSSSAYGYGWNQQKSPGSAPVTVIYNNNKRPSNIPSRFSGSKSGSTGTLTITGDQDEDEDFYFCGSEYSSTDAIFGAGTTLTVLGQSSRSSTVTLDESGGGLQAPGGALSLVCKASGFTFSSYDMGWIPQAPGKGLEYVAGITDNGIYASYGSAVDGRATISRDNRQSSVKLQLNNLKADDTGTYYCARDDGSGWTGNSIDAWGHGTEVIVSSTSGQAGQHHHHHHGAYPYDVPDYAS | specific binding to PTP1B-OX | not to PTP under reducing condition

Source: patent US9074002B2, “PTP1B inhibitors” (Cold Spring Harbor Laboratory, priority 2009, dated 2015)
